± gives the uncertainty stated by the source.

Consider 38 sequences from the supplement of paper PMC9732359.

A short description of the data set: protein stability index of a GFP-peptide fusion (yeast GPS) (PSI 1-4); higher = more stable; sorted into four equal gates, so the index is relative within each strain. The method, boiled down: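 Sequencing reads from sorted gates were used to score each peptide. The library consisted of tiled 17-residue yeast protein peptides fused downstream of GFP on a Cherry-expressing plasmid, pooled and carried in yeast. Mid-log cultures in leucine-free medium were split into four equal gates by GFP/Cherry ratio, and each gate's plasmids were PCR-amplified and Illumina-sequenced. The protein stability index adds up, over all gates, the read frequency multiplied by the gate number.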

For the sequence HPFIPLLKEKPNALKPL [RRP6], the protein stability index came to 2.54 ± 0.065 (doa10∆), 2.7 ± 0.067 (pdr5∆), 2.94 ± 0.076 (san1∆) and 2.71 ± 0.053 (ubr1∆).
For the sequence EDKFLYGDGNGKGDNDN [SWI3], the protein stability index is, setting by setting: (doa10∆) 3.48 ± 0.24; (pdr5∆) 3.35 ± 0.16; (san1∆) 3.4 ± 0.08; (ubr1∆) 3.42 ± 0.15.
On to TEENKANTNSVTSMEAA [YIL149C/MLP2], for which the protein stability index was 3.46 ± 0.1 (doa10∆), 3.5 ± 0.089 (pdr5∆), 3.12 ± 0.08 (san1∆) and 3.13 ± 0.058 (ubr1∆).
The corresponding values for ILAAAHRDAYSGGSVNL [PRE2] are 2.86 ± 0.078, 3.2 ± 0.092, 2.79 ± 0.062 and 2.89 ± 0.045.
Turning to SNGPRAAKKRRPAAKGK [RRP6], the protein stability index reads like this: (doa10∆) 2.97 ± 0.12; (pdr5∆) 3.2 ± 0.11; (san1∆) 3.12 ± 0.08; (ubr1∆) 3.17 ± 0.085.
For the sequence HLPCTIEAEEAEEIGVE [RPN8], the protein stability index turned out to be 1.8 ± 0.078 (doa10∆), 1.74 ± 0.082 (pdr5∆), 2.59 ± 0.11 (san1∆) and 2.89 ± 0.053 (ubr1∆).
Taken in the same sequence, the figures for DESNDIDMIADENGTNS [RPC37] were 2.44 ± 0.1, 2.43 ± 0.07, 2.88 ± 0.11 and 3.12 ± 0.1.
As for RKNDNANDHDESIDVDM [SMC3], the protein stability index stood at 2.83 ± 0.24 (doa10∆), 2.72 ± 0.23 (pdr5∆), 3.32 ± 0.11 (san1∆) and 3.19 ± 0.094 (ubr1∆).
The sequence VLSLGRPNLPTHNFKLS [RGR1] returned a protein stability index (doa10∆) of 3.04 ± 0.17.
As to DEFPSELSDSDRQIINE [SIR4], the protein stability index is, setting by setting: (doa10∆) 3.53 ± 0.27; (pdr5∆) 3.24 ± 0.16; (ubr1∆) 2.89 ± 0.15.
With SRTDAVRCKDCGHRILL [RPC10], the protein stability index is, setting by setting: (doa10∆) 2.62 ± 0.16; (pdr5∆) 3.31 ± 0.19; (san1∆) 2.66 ± 0.13; (ubr1∆) 3.02 ± 0.078.
Taken in the same sequence, the figures for TSLLYLSTLEPSTSITL [RPN9] were 2.36 ± 0.059, 1.89 ± 0.049, 1.91 ± 0.089 and 2.13 ± 0.045.
As for KLNVVGWFHSHPGYDCW [RRI1], the protein stability index runs as follows: (doa10∆) 2.59 ± 0.095; (pdr5∆) 2.38 ± 0.099; (san1∆) 2.61 ± 0.13; (ubr1∆) 2.38 ± 0.064.
Regarding APTRELVQQIQKETQKV [PRP28], the protein stability index runs as follows: (doa10∆) 2.8 ± 0.087; (pdr5∆) 3.14 ± 0.078; (san1∆) 2.95 ± 0.06; (ubr1∆) 3.14 ± 0.065.
GFGILEDGMIIDVNLNF [RRP40]: the protein stability index is, setting by setting: (doa10∆) 3.08 ± 0.089; (pdr5∆) 3.21 ± 0.075; (san1∆) 3.19 ± 0.089; (ubr1∆) 3.02 ± 0.076.
Taken in the same sequence, the figures for LDEVDAALDLSHTQNIG [SMC2] were 3.07 ± 0.17, 3.21 ± 0.1, 3.02 ± 0.11 and 3.12 ± 0.067.
For the sequence SQTQLENANAANNGAAF [MED2], the protein stability index amounted to 2.71 ± 0.054 (doa10∆), 2.75 ± 0.051 (pdr5∆), 2.85 ± 0.053 (san1∆) and 1.74 ± 0.032 (ubr1∆).
As for GIPTDKGPRFRKLTSQE [PRE8], the protein stability index runs as follows: (doa10∆) 3.14 ± 0.12; (pdr5∆) 3.52 ± 0.18; (san1∆) 3.01 ± 0.25; (ubr1∆) 3.46 ± 0.25.
In the case of SNTDETKGENYQLVKTL [FAS2], the protein stability index reads like this: (doa10∆) 2.94 ± 0.081; (pdr5∆) 3.06 ± 0.081; (san1∆) 2.81 ± 0.076; (ubr1∆) 3.25 ± 0.084.
Sequence TFSVYHESTSRTDQYTI [YMR129W/POM152] had a protein stability index (doa10∆) of 2.63 ± 0.15, a protein stability index (pdr5∆) of 2.64 ± 0.077, a protein stability index (san1∆) of 2.58 ± 0.098 and a protein stability index (ubr1∆) of 2.62 ± 0.066.
Sequence LEEKKKRPNNKTLEKLE [IRR1] registered a protein stability index (doa10∆) of 3.55 ± 0.14, a protein stability index (pdr5∆) of 3.43 ± 0.1, a protein stability index (san1∆) of 3.39 ± 0.092 and a protein stability index (ubr1∆) of 3.27 ± 0.13.
Take LQILAMLLLNIFISSDH [YMR129W/POM152]: the protein stability index reads like this: (doa10∆) 1.72 ± 0.058; (pdr5∆) 1.36 ± 0.061; (san1∆) 1.35 ± 0.08; (ubr1∆) 1.13 ± 0.05.
Regarding DAHGVTQARVITGNKIM [RPS13], the protein stability index came to 2.21 ± 0.088 (doa10∆), 1.61 ± 0.071 (pdr5∆), 1.22 ± 0.12 (san1∆) and 1.56 ± 0.062 (ubr1∆).
For the sequence RAGVTHVLSRLSYISAL [RET1], the protein stability index reads like this: (doa10∆) 1.47 ± 0.074; (pdr5∆) 1.26 ± 0.068; (san1∆) 1.22 ± 0.11; (ubr1∆) 1.23 ± 0.081.
In the case of FDRLNGNDTISKFYNMK [SSN2], the protein stability index runs as follows: (doa10∆) 3.17 ± 0.1; (pdr5∆) 3.06 ± 0.082; (san1∆) 3.19 ± 0.053; (ubr1∆) 3.08 ± 0.059.
For QDNKKIYVHVRRSTPFS [ESC2], the protein stability index reads like this: (doa10∆) 2.34 ± 0.049; (pdr5∆) 2.49 ± 0.049; (san1∆) 2.61 ± 0.049; (ubr1∆) 2.64 ± 0.04.
For the sequence GKTNIALLTVLKALSHH [BRR2], the protein stability index turned out to be 2.19 ± 0.058 (doa10∆), 1.54 ± 0.05 (pdr5∆), 2.14 ± 0.069 (san1∆) and 2 ± 0.057 (ubr1∆).
Taken in the same sequence, the figures for LENKADPLVSLMMVEKV [RPT6] were 2.12 ± 0.095, 2 ± 0.069, 2.35 ± 0.067 and 2.2 ± 0.099.
On to VPLAMGIVSVSDPQMKV [RPN1], for which the protein stability index was found to be 1.39 ± 0.041 (doa10∆), 1.63 ± 0.054 (pdr5∆), 1.43 ± 0.1 (san1∆) and 1.51 ± 0.051 (ubr1∆).
For the sequence DSIDLAPNTLTNILISP [YML103C/NUP188], the protein stability index worked out at 1.58 ± 0.11 (doa10∆), 1.87 ± 0.081 (pdr5∆), 1.55 ± 0.15 (san1∆) and 1.56 ± 0.19 (ubr1∆).
For the sequence VDSNLPDDEKFTDENTI [RPC40], the protein stability index is, setting by setting: (doa10∆) 2.35 ± 0.15; (pdr5∆) 3.46 ± 0.21; (san1∆) 2.02 ± 0.19.
DEVTIRRTVGLKKDDYQ [SMC3]: the protein stability index was 2.66 ± 0.12 (doa10∆), 2.53 ± 0.099 (pdr5∆), 2.32 ± 0.13 (san1∆) and 2.35 ± 0.071 (ubr1∆).
For QQTAKKLIPKLYRYRFD [ECM29], the protein stability index by setting is: (doa10∆) 2.24 ± 0.13; (pdr5∆) 2.35 ± 0.1; (san1∆) 2.24 ± 0.14; (ubr1∆) 1.21 ± 0.087.
Taken in the same sequence, the figures for TFAVILFLIIQCYKIYD [YMR129W/POM152] were 1.35 ± 0.057, 1.22 ± 0.046, 1.19 ± 0.094 and 1.31 ± 0.053.
For the sequence HELGINIDSLKFNELVK [BRR2], the protein stability index (doa10∆) was 2.89 ± 0.07, the protein stability index (pdr5∆) came to 2.93 ± 0.058, the protein stability index (san1∆) worked out at 3.08 ± 0.054 and the protein stability index (ubr1∆) is 2.9 ± 0.06.
Sequence WAADSVSSRVRGYTCQF [FAS1] returned a protein stability index (doa10∆) of 2.56 ± 0.29, a protein stability index (pdr5∆) of 2.62 ± 0.15, a protein stability index (san1∆) of 2.71 ± 0.11 and a protein stability index (ubr1∆) of 2.69 ± 0.13.
GLMKSYKIPKVMKDIYK [ESC2]: the protein stability index was determined as 3.15 ± 0.27 (doa10∆), 3.38 ± 0.12 (pdr5∆), 2.42 ± 0.26 (san1∆) and 2.92 ± 0.11 (ubr1∆).
For the sequence SLKNDLPQFRSSIQESL [ECM29], the protein stability index was found to be 2.9 ± 0.076 (doa10∆), 2.92 ± 0.07 (pdr5∆), 3.22 ± 0.077 (san1∆) and 3.07 ± 0.087 (ubr1∆).
